According to US20250090676A1 (SUTRO BIOPHARMA, published 2025):
Positions count from the first letter of the chain named.

B1: SRP1848-A01 (antibody, V domains shown)
VH: EVQLVESGGGLVQPGGSLRLSCAASGFNITRYSIHWVRQAPGKGLEWVAGILPESGGTSYADSVKGRFTISADTSKNTAYLQMNSLRAEDTAVYYCARHIYPWDWFSNYVLDYWGQGTLVTVSS
VL: not shown
notes: IgG with common trastuzumab LC, cell-free expressed, HIS- and FLAG-tagged; also called Antibody 1
B2: SRP1848-F04 (antibody, V domains shown)
VH: EVQLVESGGGLVQPGGSLRLSCAASGFNISNYSIHWVRQAPGKGLEWVGEIYPIDGITDYADSVKGRFTISADTSKNTAYLQMNSLRAEDTAVYYCARGSWFWRSGYGYYLDYWGQGTLVTVSS
VL: not shown
notes: IgG with common trastuzumab LC, cell-free expressed, HIS- and FLAG-tagged; also called Antibody 39
B3: SRP1848-D07 (antibody, V domains shown)
VH: B2 VH with N31K, S33Y, E50G, Y52S, I54N, I57Y, T69A, S100F, F102A
VL: not shown
notes: IgG with common trastuzumab LC, cell-free expressed, HIS- and FLAG-tagged; also called Antibody 28
B4: SRP1848-A09 (antibody, V domains shown)
VH: B2 VH with S30R, N31K, Y32Q, E50S, Y52F, I54N, I57T, M83V, Y110F, D112E
VL: not shown
notes: IgG with common trastuzumab LC, cell-free expressed, HIS- and FLAG-tagged; also called Antibody 7
B5: SRP1848-A10 (antibody, V domains shown)
VH: B2 VH with S30R, N31K, V37A, E50D, Y52F, G56D, F102S, R104P, Y107H, G108S
VL: not shown
notes: IgG with common trastuzumab LC, cell-free expressed, HIS- and FLAG-tagged; also called Antibody 8
B6: SRP1848-B03 (antibody, V domains shown)
VH: B2 VH with N31M, Y32K, S33Y, E50G, Y52T, I57M, F102S, R104P, G108S
VL: not shown
notes: IgG with common trastuzumab LC, cell-free expressed, HIS- and FLAG-tagged; also called Antibody 10
B7: SRP1848-C03 (antibody, V domains shown)
VH: B2 VH with S30G, N31V, I57N, F102A, G108S
VL: not shown
notes: IgG with common trastuzumab LC, cell-free expressed, HIS- and FLAG-tagged; also called Antibody 19
B8: SRP1848-D10 (antibody, V domains shown)
VH: B2 VH with N31R, Y32N, E50W, Y52S, I54N, I57T, T74G, S100A, F102S, L111I
VL: not shown
notes: IgG with common trastuzumab LC, cell-free expressed, HIS- and FLAG-tagged; also called Antibody 30
B9: SRP1848-B01 (antibody, V domains shown)
VH: B2 VH with S30R, I54V, S100F, F102S, R104P, G108S, Y110F
VL: not shown
notes: IgG with common trastuzumab LC, cell-free expressed, HIS- and FLAG-tagged; also called Antibody 9
B10: SRP1848-C01 (antibody, V domains shown)
VH: EVQLVESGGGLVQPGGSLRLSCAASGFNIGNSYIHWVRQAPGKGLEWVGGVTPNDGYTDYADSVKGRFTISADTSKNTTYLQMNSLRAEDTAVYYCARGSWFWRAGYGYYLDYWGQGALVTVSS
VL: not shown
notes: IgG with common trastuzumab LC, cell-free expressed, HIS- and FLAG-tagged; also called Antibody 18
B11: SRP1848-E02 (antibody, V domains shown)
VH: B2 VH with S30G, N31K, I54N, I57N, F102S
VL: not shown
notes: IgG with common trastuzumab LC, cell-free expressed, HIS- and FLAG-tagged; also called Antibody 32
B12: SRP1848-B04 (antibody, V domains shown)
VH: B2 VH with G26S, Y32H, I54V, S100R, W101Y, F102S, S105A, G108S
VL: not shown
notes: IgG with common trastuzumab LC, cell-free expressed, HIS- and FLAG-tagged; also called Antibody 11
B13: SRP1848-A07 (antibody, V domains shown)
VH: B2 VH with S30G, N31Y, Y32H, Y52F, I54V, I57T, Q82H, S100F, F102A
VL: not shown
notes: IgG with common trastuzumab LC, cell-free expressed, HIS- and FLAG-tagged; also called Antibody 5
B14: SRP1848-D09 (antibody, V domains shown)
VH: B2 VH with S33Y, E50G, Y52S, I54N, I57Y, F102S, S105H
VL: not shown
notes: IgG with common trastuzumab LC, cell-free expressed, HIS- and FLAG-tagged; also called Antibody 29
B15: SRP1848-B05 (antibody, V domains shown)
VH: B2 VH with S33Y, E50G, Y52S, I57Y, V64M, N84S, R104Q
VL: not shown
notes: IgG with common trastuzumab LC, cell-free expressed, HIS- and FLAG-tagged; also called Antibody 12
B16: SRP1848-B06 (antibody, V domains shown)
VH: B2 VH with S33Y, E50G, Y52T, I57Y, S100F, F102S, R104P, L111Q
VL: not shown
notes: IgG with common trastuzumab LC, cell-free expressed, HIS- and FLAG-tagged; also called Antibody 13
B17: SRP1848-F02 (antibody, V domains shown)
VH: B2 VH with S30R, N31T, E50S, Y52F, I54N, I57T, F68L, F102S, R104Q, S105A
VL: not shown
notes: IgG with common trastuzumab LC, cell-free expressed, HIS- and FLAG-tagged; also called Antibody 38
B18: SRP1848-D02 (antibody, V domains shown)
VH: B10 VH with G30S, N31H, S32N, V51I, N54Q, T79A, S85R, S100A, F102S, A118T
VL: not shown
notes: IgG with common trastuzumab LC, cell-free expressed, HIS- and FLAG-tagged; also called Antibody 24
B19: SRP1848-F01 (antibody, V domains shown)
VH: B2 VH with S30R, N31T, E50S, Y52F, I54N, I57T, F102A, S105A, G108S
VL: not shown
notes: IgG with common trastuzumab LC, cell-free expressed, HIS- and FLAG-tagged; also called Antibody 37
B20: SRP1848-A06 (antibody, V domains shown)
VH: B10 VH with V51I, N54I, Y57N, T79A, S100A, F102S, A105S, L111I, A118T
VL: not shown
notes: IgG with common trastuzumab LC, cell-free expressed, HIS- and FLAG-tagged; also called Antibody 4
B21: SRP1848-C05 (antibody, V domains shown)
VH: B2 VH with S30R, N31K, E50D, Y52F, T58N, F102S, R104K, S105A
VL: not shown
notes: IgG with common trastuzumab LC, cell-free expressed, HIS- and FLAG-tagged; also called Antibody 21
B22: SRP1848-F05 (antibody, V domains shown)
VH: B2 VH with N31K, Y32S, I54N, I57S, F102A, G108S, Y110F
VL: not shown
notes: IgG with common trastuzumab LC, cell-free expressed, HIS- and FLAG-tagged; also called Antibody 40
B23: SRP1848-B10 (antibody, V domains shown)
VH: B2 VH with I29T, S30T, N31T, Y32K, I54R, S100G, F102H, G108S
VL: not shown
notes: IgG with common trastuzumab LC, cell-free expressed, HIS- and FLAG-tagged; also called Antibody 16
B24: SRP1848-D04 (antibody, V domains shown)
VH: B2 VH with N31H, I54R, R87S, S100Y
VL: not shown
notes: IgG with common trastuzumab LC, cell-free expressed, HIS- and FLAG-tagged; also called Antibody 26
B25: SRP1848-B09 (antibody, V domains shown)
VH: EVQLVESGGGLVQPGGSLRLSCAAGGFNITNYYIHWVRQAPGKGLEWVGGITPVDGYTDYADRVKGRFTISADTSKNTAYLQMNSLRAEDTAVYYCARGAWSWRSGYGYYMDYWGQGTLVTVSS
VL: not shown
notes: IgG with common trastuzumab LC, cell-free expressed, HIS- and FLAG-tagged; also called Antibody 15
B26: SRP1848-D05 (antibody, V domains shown)
VH: B10 VH with G30S, N31I, V51I, T52S, N54I, T79A, F102S, A118T
VL: not shown
notes: IgG with common trastuzumab LC, cell-free expressed, HIS- and FLAG-tagged; also called Antibody 27
B27: SRP1848-C07 (antibody, V domains shown)
VH: B2 VH with S30R, N31K, E50D, Y52F, V64M, F102S, R104P, S105A, L111Q
VL: not shown
notes: IgG with common trastuzumab LC, cell-free expressed, HIS- and FLAG-tagged; also called Antibody 22
B28: SRP1848-C04 (antibody, V domains shown)
VH: B2 VH with S30R, N31H, I54G, D55P, I57N, W101L, F102S, S105A
VL: not shown
notes: IgG with common trastuzumab LC, cell-free expressed, HIS- and FLAG-tagged; also called Antibody 20
B29: SRP1848-E07 (antibody, V domains shown)
VH: B2 VH with S30R, N31K, Y32S, Y52F, I54Y, I57S, S63N, S100A, F102S, L111I
VL: not shown
notes: IgG with common trastuzumab LC, cell-free expressed, HIS- and FLAG-tagged; also called Antibody 36
B30: SRP1848-E05 (antibody, V domains shown)
VH: B25 VH with L20V, G25S, T30G, N31V, V54N, R63S, A100F, S102A, M111L
VL: not shown
notes: IgG with common trastuzumab LC, cell-free expressed, HIS- and FLAG-tagged; also called Antibody 34
B31: SRP1848-B11 (antibody, V domains shown)
VH: B2 VH with S30G, Y32N, E50D, Y52S, I57F, F102S, S105A
VL: not shown
notes: IgG with common trastuzumab LC, cell-free expressed, HIS- and FLAG-tagged; also called Antibody 17
B32: SRP1848-B07 (antibody, V domains shown)
VH: EVQLVESGGGLVQPGGSLRLSCAASGFNISRFYIHWVRQAPGKGLEWVGGISPYDGFTDYADSVKGRFTISADTSKNTAYLQMNSLRAEDTAVYYCARGSWSWPAGYGYYQDYWGQGTLVTVSS
VL: not shown
notes: IgG with common trastuzumab LC, cell-free expressed, HIS- and FLAG-tagged; also called Antibody 14
B33: SRP1848-C10 (antibody, V domains shown)
VH: B32 VH with S30R, R31T, F32Y, Y54I, F57Y, Q111L
VL: not shown
notes: IgG with common trastuzumab LC, cell-free expressed, HIS- and FLAG-tagged; also called Antibody 23
B34: SRP1848-A08 (antibody, V domains shown)
VH: B2 VH with F27S, S30R, N31K, Y32H, E50S, I54N, I57T, S105A
VL: not shown
notes: IgG with common trastuzumab LC, cell-free expressed, HIS- and FLAG-tagged; also called Antibody 6
B35: SRP1848-E01 (antibody, V domains shown)
VH: B32 VH with S30T, R31N, F32K, S52T, Y54F
VL: not shown
notes: IgG with common trastuzumab LC, cell-free expressed, HIS- and FLAG-tagged; also called Antibody 31
B36: SRP1848-A04 (antibody, V domains shown)
VH: B2 VH with S30D, N31Q, Y32S, E50V, I54V, I57T, S100A, F102S, L111I
VL: not shown
notes: IgG with common trastuzumab LC, cell-free expressed, HIS- and FLAG-tagged; also called Antibody 3
B37: SRP1848-A02 (antibody, V domains shown)
VH: EVQLVESGGGLVQPGGSLRLSCAASGFNISGFRIHWVRQAPGKGLEWVAGIYPESGATYYADSVKGRFTISADTSKNTAYLQMNSLRAEDTAVYYCARHLYVWDWVLDHVLDYWGQGTLVTVSS
VL: not shown
notes: IgG with common trastuzumab LC, cell-free expressed, HIS- and FLAG-tagged; also called Antibody 2

The binders below were run against T1, human FOLR1-HIS (human, UniProt P15328 25-233) (assay: SPR (Biacore), antibody captured on anti-Fc, human FOLR1-HIS analyte, 25 C).
T1 construct: Analyte of the Biacore assay; also called FolRα-ECD; extracellular domain of FOLR1; not shown: HIS tag
T1 sequence (P15328 25-233 limits assumed): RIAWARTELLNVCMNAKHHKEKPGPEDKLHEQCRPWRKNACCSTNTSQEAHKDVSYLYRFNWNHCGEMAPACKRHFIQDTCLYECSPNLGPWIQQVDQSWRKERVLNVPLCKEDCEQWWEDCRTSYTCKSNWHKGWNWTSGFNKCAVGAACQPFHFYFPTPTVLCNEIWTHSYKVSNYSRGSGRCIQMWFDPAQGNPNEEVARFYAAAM

Kd [nM]	koff [s⁻¹]	kon [M⁻¹ s⁻¹]	Binder
1.87	0.00155	829000	B1
1.32	0.00108	815000	B2
4.7	0.00511	1.09e+06	B3
1.82	–	–	B4
2.74	0.0033	1.2e+06	B5
7.63	0.00859	1.13e+06	B6
1.11	0.00152	1.36e+06	B7
4.95	0.00558	1.13e+06	B8
3.67	0.00416	1.13e+06	B9
3.05	–	–	B10
6.21	0.00707	1.14e+06	B11
1.5	0.00117	780000	B12
0.855	0.000866	1.01e+06	B13
10.1	0.0108	1.07e+06	B14
9.07	0.00885	976000	B15
5.1	0.00317	620000	B16
4.49	0.00637	1.42e+06	B17
2.41	0.00205	851000	B18
3.18	0.00362	1.14e+06	B19

Kd [nM]	koff [s⁻¹]	kon [M⁻¹ s⁻¹]	Binder
3.51	–	–	B20
4.29	0.00454	1.06e+06	B21
2.4	0.00157	656000	B22
2.18	–	–	B23
3.48	0.00173	497000	B24
4.26	0.00661	1.55e+06	B25
2.93	–	–	B26
2.21	0.00189	856000	B27
3.86	0.00499	1.29e+06	B28
1.91	0.0024	1.25e+06	B29
3.51	0.00251	716000	B30
1.52	0.00186	1.22e+06	B31
5.35	0.00378	706000	B32
4.03	0.00363	899000	B33
2.42	0.00119	493000	B34
7.87	0.00522	664000	B35
2.03	0.00326	1.61e+06	B36
16.8	0.00882	525000	B37
